Experimental data as given in article PMC11710176 (Alzheimer's & Dementia, 2024).
Values joined by “and” are separate entries in the source; they are usually repeats but may differ in a detail not shown here. Identical values can stand only once.

Molecular target: tau oligomers (UniProt P10636 1-758)
Experiment: SPR; who was immobilised and the conditions not given
Details: both partners purified

B1: cellular prion protein (natural protein)
chain: not shown
notes: also called PrP^C; PrPC
In the case of B1, the Kd is reported as 20 nM and 50 nM.
